From patent publication US20040213795A1

Biological target: Murine PD-1 fusion protein (mouse) (UniProt Q02242)
Experiment: SPR (BIAcore 3000), murine PD-1 fusion immobilized on CM5 chip, antibody 25 nM to 500 nM in flow

Murine PD-1 fusion protein (mouse), sequence (Q02242 25-167): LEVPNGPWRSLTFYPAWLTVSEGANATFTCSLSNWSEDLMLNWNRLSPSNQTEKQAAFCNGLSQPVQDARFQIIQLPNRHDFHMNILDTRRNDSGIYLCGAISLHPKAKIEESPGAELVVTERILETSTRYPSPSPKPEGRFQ

B1: Anti-mouse PD1 antibody J43 (antibody, from another filing, V domains shown)
VH: EVRLLESGGGLVKPEGSLKLSCVASGFTFSDYFMSWVRQAPGKGLEWVAHIYTKSYNYATYYSGSVKGRFTISRDDSRSMVYLQMNNLRTEDTATYYCTRDGSGYPSLDFWGQGTQVTVSS
VL: YELTQPPSASVNVGETVKITCSGDQLPKYFADWFHQRSDQTILQVIYDDNKRPSGIPERISGSSSGTTATLTIRDVRAEDEGDYYCFSGYVDSDSKLYVFGSGTQLTVLG
With B1 the Ka was 2.6e+06 M⁻¹ and the Kd was 380 nM.
